From US10370433B2, “Compositions and methods for diagnosis and treatment of cancer” (BIONTECH AG, priority 2015, dated 2019)
Like-named read-outs stand apart in the source and are kept apart here.

Assays:
[1] = human, in vivo, iv
in vivo = settings: BALB/c nu/nu, mouse, iv, total radioactivity; for tissue uptake at 1 h / tissue uptake at 2 h / tissue uptake at 4 h / tissue uptake at 6 h / tissue uptake at 24 h / tissue uptake at 0.5 h: Mean % ID/g; for tissue uptake at 0.5 h: 30 min

CC[C@H](C)[C@@H]1NC(=O)[C@@H]2CSSC[C@H](NC(=O)[C@H](C)NC(=O)CNC(=O)[C@H](CO)NC(=O)CNC(=O)CON=CC(=O)NCCCC[C@H](NC(=O)[C@H](CO)NC(=O)CNC(=O)[C@H](CO)NC(=O)CNC(=O)[C@H](CCCCNC(=O)C=NOCC(=O)NCC(=O)N[C@@H](CO)C(=O)NCC(=O)N[C@@H](C)C(=O)N[C@H]3CSSC[C@@H]4NC(=O)[C@H](CCCNC(=N)N)NC(=O)CNC(=O)[C@@H]5CCCN5C(=O)[C@@H]5CSSC[C@@H](C(=O)NCC(=O)O)NC(=O)[C@H](Cc6ccc(O)cc6)NC(=O)CNC(=O)[C@H](CC(N)=O)NC(=O)CNC(=O)[C@H](CCCNC(=N)N)NC(=O)[C@H](CSSC[C@H](NC(=O)[C@H](CC(=O)O)NC(=O)[C@@H]6CCCN6C(=O)CNC(=O)[C@H](CCCNC(=N)N)NC(=O)CNC(=O)[C@@H]6CCCN6C(=O)[C@H]([C@@H](C)O)NC(=O)[C@H](Cc6c[nH]c7ccccc67)NC(=O)[C@H](CC(N)=O)NC(=O)[C@H](CO)NC(=O)[C@H](Cc6ccc(O)cc6)NC(=O)[C@@H]6CCCN6C3=O)C(=O)N[C@@H](CCCNC(=N)N)C(=O)N[C@@H](CCCNC(=N)N)C(=O)N[C@@H](CC(=O)O)C(=O)N[C@@H](CO)C(=O)N[C@@H](CC(=O)O)C(=O)N5)NC(=O)[C@H]([C@@H](C)CC)NC4=O)NC(=O)[C@H](CO)NC(=O)CNC(=O)[C@H](CO)NC(=O)CNC(=O)[C@H](CCCCNC(=O)C=NOCC(=O)NCC(=O)N[C@@H](CO)C(=O)NCC(=O)N[C@@H](C)C(=O)N[C@H]3CSSC[C@@H]4NC(=O)[C@H](CCCNC(=N)N)NC(=O)CNC(=O)[C@@H]5CCCN5C(=O)[C@@H]5CSSC[C@@H](C(=O)NCC(=O)O)NC(=O)[C@H](Cc6ccc(O)cc6)NC(=O)CNC(=O)[C@H](CC(N)=O)NC(=O)CNC(=O)[C@H](CCCNC(=N)N)NC(=O)[C@H](CSSC[C@H](NC(=O)[C@H](CC(=O)O)NC(=O)[C@@H]6CCCN6C(=O)CNC(=O)[C@H](CCCNC(=N)N)NC(=O)CNC(=O)[C@@H]6CCCN6C(=O)[C@H]([C@@H](C)O)NC(=O)[C@H](Cc6c[nH]c7ccccc67)NC(=O)[C@H](CC(N)=O)NC(=O)[C@H](CO)NC(=O)[C@H](Cc6ccc(O)cc6)NC(=O)[C@@H]6CCCN6C3=O)C(=O)N[C@@H](CCCNC(=N)N)C(=O)N[C@@H](CCCNC(=N)N)C(=O)N[C@@H](CC(=O)O)C(=O)N[C@@H](CO)C(=O)N[C@@H](CC(=O)O)C(=O)N5)NC(=O)[C@H]([C@@H](C)CC)NC4=O)NC(=O)[C@H](CO)NC(=O)CNC(=O)[C@H](CO)NC(=O)CNC(=O)CN3CCN(CC(=O)O)CCN(CC(=O)O)CCN(CC(=O)O)CC3)C(=O)O)C(=O)N3CCC[C@H]3C(=O)N[C@@H](Cc3ccc(O)cc3)C(=O)N[C@@H](CO)C(=O)N[C@@H](CC(N)=O)C(=O)N[C@@H](Cc3c[nH]c4ccccc34)C(=O)N[C@@H]([C@@H](C)O)C(=O)N3CCC[C@H]3C(=O)NCC(=O)N[C@@H](CCCNC(=N)N)C(=O)NCC(=O)N3CCC[C@H]3C(=O)N[C@@H](CC(=O)O)C(=O)N[C@H]3CSSC[C@H](NC1=O)C(=O)N[C@@H](CCCNC(=N)N)C(=O)NCC(=O)N[C@@H](CC(N)=O)C(=O)NCC(=O)N[C@@H](Cc1ccc(O)cc1)C(=O)N[C@H](C(=O)NCC(=O)O)CSSC[C@H](NC(=O)[C@H](CC(=O)O)NC(=O)[C@H](CO)NC(=O)[C@H](CC(=O)O)NC(=O)[C@H](CCCNC(=N)N)NC(=O)[C@H](CCCNC(=N)N)NC3=O)C(=O)N1CCC[C@H]1C(=O)NCC(=O)N[C@@H](CCCNC(=N)N)C(=O)N2 (single isomer, unassigned) [^177Lu-(MC-FA-012)3, metal not drawn]
acute nephrotoxicity [1]: no acute nephrotoxicity
tissue uptake at 1 h (in vivo): 0.67 %ID/g
tissue uptake at 2 h (in vivo): 0.607 %ID/g
tissue uptake at 4 h (in vivo): 0.451 %ID/g
tissue uptake at 6 h (in vivo): 0.648 %ID/g
tissue uptake at 24 h (in vivo): 0.189 %ID/g
tissue uptake at 0.5 h (in vivo; Blood): 1.35 %ID/g
tissue uptake at 1 h (in vivo; Blood): 0.36 %ID/g
tissue uptake at 2 h (in vivo; Blood): 0.135 %ID/g
tissue uptake at 4 h (in vivo; Blood): 0.042 %ID/g
tissue uptake at 6 h (in vivo; Blood): 0.0374 %ID/g
tissue uptake at 24 h (in vivo; Blood): 0.0429 %ID/g
tissue uptake at 0.5 h (in vivo; Heart): 0.615 %ID/g
tissue uptake at 1 h (in vivo; Heart): 0.187 %ID/g
tissue uptake at 2 h (in vivo; Heart): 0.128 %ID/g
tissue uptake at 4 h (in vivo; Heart): 0.102 %ID/g
tissue uptake at 6 h (in vivo; Heart): 0.0876 %ID/g
tissue uptake at 24 h (in vivo; Heart): 0.0641 %ID/g
tissue uptake at 2 h (in vivo; Injection site): 2.87 %ID/g
tissue uptake at 4 h (in vivo; Injection site): 2.61 %ID/g
tissue uptake at 6 h (in vivo; Injection site): 1.57 %ID/g
tissue uptake at 24 h (in vivo; Injection site): 0.983 %ID/g
tissue uptake at 0.5 h (in vivo; Liver): 0.668 %ID/g
tissue uptake at 1 h (in vivo; Liver): 0.398 %ID/g
tissue uptake at 2 h (in vivo; Liver): 0.44 %ID/g
tissue uptake at 4 h (in vivo; Liver): 0.41 %ID/g
tissue uptake at 6 h (in vivo; Liver): 0.431 %ID/g
tissue uptake at 24 h (in vivo; Liver): 0.363 %ID/g
tissue uptake (in vivo; signal in kidney): 287 %ID/g
Mean % ID/g, Brain (CT26-huSeprase tumors; 30 min): 0.6895 % ID/g
Mean % ID/g, Injection site (CT26-huSeprase tumors; 30 min): 4.2434 % ID/g
Mean % ID/g, Intestine (CT26-huSeprase tumors; 30 min): 0.7435 % ID/g
Mean % ID/g, Kidneys (CT26-huSeprase tumors; 30 min): 286.7812 % ID/g
Mean % ID/g, Muscle (CT26-huSeprase tumors; 30 min): 0.0589 % ID/g
Mean % ID/g, Spleen (CT26-huSeprase tumors; 30 min): 0.9253 % ID/g
Mean % ID/g, Tumor (CT26-huSeprase tumors; 30 min): 9.8546 % ID/g
Mean % ID/g, Brain (CT26-huSeprase tumors; 1 h): 0.2284 % ID/g
Mean % ID/g, Injection site (CT26-huSeprase tumors; 1 h): 15.2418 % ID/g
Mean % ID/g, Intestine (CT26-huSeprase tumors; 1 h): 0.5079 % ID/g
Mean % ID/g, Muscle (CT26-huSeprase tumors; 1 h): 0.0423 % ID/g
Mean % ID/g, Spleen (CT26-huSeprase tumors; 1 h): 0.5493 % ID/g
Mean % ID/g, Tumor (CT26-huSeprase tumors; 1 h): 6.7929 % ID/g
Mean % ID/g, Brain (CT26-huSeprase tumors; 2 h): 0.5818 % ID/g
Mean % ID/g, Intestine (CT26-huSeprase tumors; 2 h): 1.0902 % ID/g
Mean % ID/g, Kidneys (CT26-huSeprase tumors; 2 h): 272.3888 % ID/g
Mean % ID/g, Muscle (CT26-huSeprase tumors; 2 h): 0.0317 % ID/g
Mean % ID/g, Spleen (CT26-huSeprase tumors; 2 h): 0.6561 % ID/g
Mean % ID/g, Tumor (CT26-huSeprase tumors; 2 h): 8.1504 % ID/g
Mean % ID/g, Brain (CT26-huSeprase tumors; 4 h): 0.3159 % ID/g
Mean % ID/g, Intestine (CT26-huSeprase tumors; 4 h): 0.2913 % ID/g
Mean % ID/g, Kidneys (CT26-huSeprase tumors; 4 h): 245.1877 % ID/g
Mean % ID/g, Muscle (CT26-huSeprase tumors; 4 h): 0.0241 % ID/g
Mean % ID/g, Spleen (CT26-huSeprase tumors; 4 h): 0.5931 % ID/g
Mean % ID/g, Tumor (CT26-huSeprase tumors; 4 h): 7.7667 % ID/g
Mean % ID/g, Brain (CT26-huSeprase tumors; 6 h): 0.2159 % ID/g
Mean % ID/g, Intestine (CT26-huSeprase tumors; 6 h): 0.9309 % ID/g
Mean % ID/g, Kidneys (CT26-huSeprase tumors; 6 h): 259.4467 % ID/g
Mean % ID/g, Muscle (CT26-huSeprase tumors; 6 h): 0.1259 % ID/g
Mean % ID/g, Spleen (CT26-huSeprase tumors; 6 h): 0.6287 % ID/g
Mean % ID/g, Tumor (CT26-huSeprase tumors; 6 h): 7.8057 % ID/g
Mean % ID/g, Brain (CT26-huSeprase tumors; 24 h): 0.2151 % ID/g
Mean % ID/g, Intestine (CT26-huSeprase tumors; 24 h): 0.3347 % ID/g
Mean % ID/g, Kidneys (CT26-huSeprase tumors; 24 h): 213.4107 % ID/g
Mean % ID/g, Muscle (CT26-huSeprase tumors; 24 h): 0.0253 % ID/g
Mean % ID/g, Spleen (CT26-huSeprase tumors; 24 h): 0.4561 % ID/g
Mean % ID/g, Tumor (CT26-huSeprase tumors; 24 h): 5.8505 % ID/g
Mean % ID/g, Kidneys (CT26-huSeprase tumors; mouse, in vivo): 222.3177 % ID/g
signal in tumor (CT26-huSeprase tumors; mouse, in vivo): 9.9-5.9
tumor targeting (CT26-huSeprase tumors; mouse, in vivo): specific tumor targeting
